Patent publication US20190203224A1

Legend:
[1] = target: Brush border membrane vesicles (BBMV) prepared from midguts of third instar western corn rootworm (Diabrotica virgifera virgifera LeConte) larvae; putative receptor(s) on the BBMV (Diabrotica virgifera virgifera)
[2] = target: Brush border membrane vesicles (BBMV) prepared from midguts of third instar western corn rootworm (Diabrotica virgifera virgifera LeConte) larvae; putative receptor(s) on the BBMV (Diabrotica virgifera virgifera); remark: listed apart in the source

Question: “Cry3Aa trypsin core (trypsin-truncated Cry3Aa core protein) (from UniProt P0A379 159-644)” was tested. Which Bmax (binding site concentration) (pmole/ug BBMV) [1] did it give?
Answer: 146

Question: And the Kd [2]?
Answer: 0.024 µM

Question: For “Cry35Ab1 chymotrypsin core (chymotrypsin-truncated Cry35Ab1 core protein) (from UniProt Q939S9 1-354)”, which Bmax (binding site concentration) (pmole/ug BBMV) [1] is on record?
Answer: 31.7

Question: What about the Kd [2] of the same substance?
Answer: 0.00231 µM
